The results in this text go back to the nanobody polyreactivity screen of Harvey et al. (2022).

A short description of this data set: yeast display, Sf9 membrane polyspecificity reagent, FACS + sequencing; frameworks hold sequencing errors. The method in brief: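 A synthetic nanobody library was expressed on Saccharomyces cerevisiae BJ5465 by galactose induction for 36–48 hours. The library was stained for 1 hour at 4 °C with 10% biotinylated, detergent-solubilized Sf9 membrane reagent and enriched with streptavidin microbeads before FACS. Low and high (top ~1%) gates were set on anti-HA fluorescence for expression and streptavidin fluorescence for reagent binding, and each polyreactivity label reflects the gate of origin.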
With “QVHLVESGGGLVQAGGSLRLSCAASGGIFYAYDMGWYRQAPGKERELVAAITWTGGTTYYADSVKGRFTISRDNAKKTVYLLMNSLKPEDTAVYYCAADDGTNSTARDKDDYYYWGQGTEVTVSS”, the “polyreactivity (PSR sort gate)” value is reported as “low polyreactivity”.
In the case of “QVHLVESGGGLVQAGGSLRLSCAASGGTDVGYAMGWYRQAPGKEMELDATITRRGGNTYYADSVKGRFTISRDNAKNTVYLQKNSLKPEDTAVYYCAARKKGSRVGYDYWGQGTQVTVSS” it was “high polyreactivity”; in that of “QVHLVESGGGLVQAGGSLRLSCAASGIIFLVYAMGWYRQAPGKEWELVAGISGSATSTNYADSVKGRFTISRDNAKNTVYLQMNSLKPEDTAVYYCAASYYGYYVPDNSKYGYWGQGTQVTVSS”, “low polyreactivity”; in that of “QVHLVESGGGLVQAGGSLRLSCAASGIIISSYAMGWYRQAPGKERELVAAITWGGTRTNYADSVKGRFTISRDNAKNTVYLQMNSLKPEDTAVYYCAADKYLYGRLTRNFHYYYWGQGTQVTVSS”, “low polyreactivity”.
Then “QVHLVESGGGLVQAGGSLRLSCAASGIIVYPYAMGWYRQAPGKESELVATISYRGGSTYYADSVKGRFTISRDNAKNTVYLQMNSLKPEETAVYYCAAERGYPKFGYCGQGTQVTVSS”, with “low polyreactivity”.
In the case of “QVHLVESGGGLVQAGGSLRLSCAASGITFISYAMGWYRQAPGKEREFVAAITRRGGSTYYADSVKGRFTISRDNAKNTVYLQMNSLKPEDTAVYYCAARVLSLYTYYYWGQGTQVTVSS” it was “high polyreactivity”.
In the case of “QVHLVESGGGLVQAGGSLRLSCAASGITFQRYAMGWYREAPGKERELVASISTNGGTTYYADSVKGRFTISRHNAKNTVYLQMNSLKPEDTAVYYCNAESGYVYYIRYNYWGQGTQVTVSS”, the “polyreactivity (PSR sort gate)” value is given as “high polyreactivity”.
For the sequence “QVHLVESGGGLVQAGGSLRLSCAASGITFRRYGMGWYRQAPGKERELVATITSSVGSRTYYADSVKGRFTISRDNAKNTVYLQMNSLKPEDTAVYYCAADHRVYDYEYWGQGTQVTVSS”, the “polyreactivity (PSR sort gate)” value is “low polyreactivity”.
In the case of “QVHLVESGGGLVQAGGSLRLSCAASGITFYRNAMGWYRQPRGKEMELVAAITWNGGRTYYADSVKGRFTISRDNAKNTVYLQMNSLKPEDTAVYYCAADSGSRNLASYRYYSWGQGTQVTVSS” it was “low polyreactivity”.
In the case of “QVHLVESGGGLVQAGGSLRLSCAASGLIFVDNAMGWYRQAPGKERELVAAIDSGGSTNYADSVKGRFTISRDNEKNTVYLQMNSLKTEDTAVYYCAADWIYAPWYYQECVEYYYWGQGTQVTVSS” it was “low polyreactivity”; in that of “QVHLVESGGGLVQAGGSLRLSCAASGLTFYSNAMRWYRQAPGKERELVARISTGGSTYADSVKGRFTISRDNAKNTVYLQMNSLKPEDTGVFYCAKLPPRGIDDEYWGQATQVTVSS”, “low polyreactivity”; in that of “QVHLVESGGGLVQAGGSLRLSCAASGLTFYWYTMGWYRQAPGKERELVAAITSGGSTSYADSVKGRFTISRDNAKNTVYLQMNSLKPEDTAVYYCAADGQVSGYDYWGQGTQVTVSS”, “high polyreactivity”.
For the sequence “QVHLVESGGGLVQAGGSLRLSCAASGNIFGVYAMGWYRQAPGKERELVAAISDSTYYADSVKGRFTISRDNAKNTVYLQMTSLKPEDTAVYYCAAAVLGRYSAGDGYWGQGPQVTVSS”, the “polyreactivity (PSR sort gate)” value is given as “low polyreactivity”.
Then “QVHLVESGGGLVQAGGSLRLSCAASGRIFAWNSMGWYRQAPGKERELVAAITYNGGSTYYADSVKGRFTISRDNAKNTVYLQMNSLKPEDTAVYYCNKVTRSPAQGYGYWGQGTQVTVSS”, with “high polyreactivity”.
In the case of “QVHLVESGGGLVQAGGSLRLSCAASGRIFGPYTMGWYIQAPGKEREFVAAITRRGGSTYYADSVKGRFTISRDNAKNTVYLQMNSLKPEDTAVYSCAAGGQKRSLGYSWGQGTQVTVSS” it was “low polyreactivity”; in that of “QVHLVESGGGLVQAGGSLRLSCAASGRIFRPYAMGWYRQAPGKERELVAGLTSSGGSTYYADSVKGRFTISRDNAKNTVYLHMNSRKPEDTALYYCAAGPDYGWRRYDYWGQGTQVTVSS”, “low polyreactivity”; in that of “QVHLVESGGGLVQAGGSLRLSCAASGRIFSRNVMGWYRQAPGKERELVAAISSSGSTYADSVKGRFTISRDNAKNTVYLQMNSLKPEDTAVYYCAAVIYLWGQGTQVTVSS”, “high polyreactivity”.
Then “QVHLVESGGGLVQAGGSLRLSCAASGRIFYGYAMGWYRQAPGKEREFVAAITVSAGSTYYADSVKGRFTISRDNAKNTVYLQMNSLKPEDTAVYYCAGENGSKEFDYWGQGTQVTVSS”, with “low polyreactivity”; and “QVHLVESGGGLVQAGGSLRLSCAASGRNFGYNAMGWYRQAPRKEREFVASISSSGGLTYYSDSVKGRFTISRDNAKNTVYLQMNSLKPEDSAFYDCARQGYYLYSKYDYWGQGTQVTVSS”, with “high polyreactivity”.
As for “QVHLVESGGGLVQAGGSLRLSCAASGRTFGINAMGWYRQAPGKERELDAVISFGDGGTYYADSVKGRFTISRDNAKNTVYLQMKSLKPEDTAVYYCATDYQSTSVWGGHFVINPYDYWGQGTQVTVSS”, the “polyreactivity (PSR sort gate)” value is reported as “low polyreactivity”.
Then “QVHLVESGGGLVQAGGSLRLSCAASGRTFHVYAMGWYRQAPGKEREFVAFISRRGGSTYYADSVKGRFTISRDNAKNTVYLQMNSLKPEDTAVYYCNAKYPSNYVVQDDYWGQGTQVTVSS”, with “high polyreactivity”; and “QVHLVESGGGLVQAGGSLRLSCAASGRTFIENAMGWYRQAPGKERELVAAIFSGGSTYYADSVKGRFTISRDNAKKTVDLQLNSLKPEDTAVYYCDARFARYDWSMYYWGQGTQVTVSS”, with “low polyreactivity”.
Then “QVHLVESGGGLVQAGGSLRLSCAASGRTFIKYAMGWYIQAPGKERELVAAISVSGGRTYYADSVKGRFTISRDKAKNTVYLQMNSLKPEDTAVYYCNKVRVGSLRGYWGQGTQVTVSS”, with “high polyreactivity”.
Then “QVHLVESGGGLVQAGGSLRLSCAASGRTFNVYAMGWYRQAPGKERELVASISSSDTTNYADSVKGRFTISRDNAKNTVYLQMNSLKPEDTAVYYCAADYTPDLLSKVDYWGQGTQVTVSS”, with “low polyreactivity”.
As to “QVHLVESGGGLVQAGGSLRLSCAASGRTFPYNAMGWYRQAPGKERELVATIDSSGTRTFYADSVKGRFTISRDNANNTVYLQMNSLKPEDTAVYYCAKGWYAYKLYGYDYWGQGTQVTVSS”, the “polyreactivity (PSR sort gate)” value is recorded as “low polyreactivity”.
In the case of “QVHLVESGGGLVQAGGSLRLSCAASGRTFRLYAMAWSRQAPGKERELVARISRGGSTYYADSVKGRFTISRDNAKNTVYLLMNSLKREDTAVYYCAAEGWGLSHRYDYWGQGTQVTVSS” it was “high polyreactivity”.
As for “QVHLVESGGGLVQAGGSLRLSCAASGRTFSRYAMGWYRQAPGKERELVAGISLSGTSTYYADSVKGRFTISRDNAKNTVYLQMNSLIPVVTAVYYCATYSSYIPYGFDYWGQGTQVTVSS”, the “polyreactivity (PSR sort gate)” value is listed as “high polyreactivity”.
Consider “QVHLVESGGGLVQAGGSLRLSCAASGRTFVYYAMGWYRQAPGKERELVAAITSVGSTYYADSVKGRFTISRDNAKNTVYLQMNSLKPEDTAVYYCAKDTWAYPYYWPYDDYWGQGTQVTVSS”, for which the “polyreactivity (PSR sort gate)” value is “low polyreactivity”.
In the case of “QVHLVESGGGLVQAGGSLRLSCAASGRTLGGNAMGWYRQAPGKERELDAAITNSASTYADSVKGRFTISRDNAKNTVYLQMNSLKPEDTAVYYCNAPDPSDQHGDYWGQGTQVTVSS” it was “low polyreactivity”; in that of “QVHLVESGGGLVQAGGSLRLSCAASGSIFGPNAMGWYRPAPGKERELVAAINGGTGTFYADSVKGRFTISRDNAKHTVYLQMNSLKPEDTAVYYCAADYGTHYFVRYYYWGQGTEVTVSS”, “high polyreactivity”; in that of “QVHLVESGGGLVQAGGSLRLSCAASGSIFGPYAMGWYRQAPGKERELVAAITYRGDSTYYADSVKGRFTISRDYAKNTVYLQINSLKPEDTAVYYCAADYFYANYDYWGQGTQVTVSS”, “high polyreactivity”.
Consider “QVHLVESGGGLVQAGGSLRLSCAASGSIFGRYAMGWYRQAPGKERELVANITSGDSTNYADSVKGRFTISRDNAKNTVYLQMNSLKPEDTAVYYCAAYRIGQYDYWGQGTQVTVSS”, for which the “polyreactivity (PSR sort gate)” value is listed as “high polyreactivity”.
In the case of “QVHLVESGGGLVQAGGSLRLSCAASGSIFGTNALGWYRQAPGKERELVAAINWSGGTTYYADSVKGRFTISRDNAKNTVYLQMNTLKPEDTAVYYCATFFFVLPPTRFDSWGQGTQVTVSS”, the “polyreactivity (PSR sort gate)” value is reported as “low polyreactivity”.
On to “QVHLVESGGGLVQAGGSLRLSCAASGSIFINNTMGWYRQAPGKERELVAAISITGGSTYYADSVKGRFTISRDNAKNTVYLQMNSLKPEDTAVYYCAADPLQLYDYNYWGQGTQVTVSS”, for which the “polyreactivity (PSR sort gate)” value was “low polyreactivity”.
In the case of “QVHLVESGGGLVQAGGSLRLSCAASGSIFKPYTMRWYRQAPGTERELVAVITRRGGSTYYADSVKGRFTISRDNAKNTVYLQMNSLKPEDTAVYYCAAEYDYYGWWNDYWGQGTQVTVSS” it was “high polyreactivity”.
Then “QVHLVESGGGLVQAGGSLRLSCAASGSIFLWYTMGWYRQAPGKERELVAAISRTGGSTYYADSVKGRFTISRDNAKNTVYLQMNSLKPEDTAVYYCAASLYSITRARYDYWGQGTQVTVSS”, with “high polyreactivity”.
As for “QVHLVESGGGLVQAGGSLRLSCAASGSIFRYNVKAWYRQAPGNERQFVAANTARGGSTYYPESVKVRFTISRDYAKNTVYRQMISMKPEDTAVYYCATVSQQSRSLGIDRIYYWGQGTQVTVSS”, the “polyreactivity (PSR sort gate)” value is listed as “high polyreactivity”.
Then “QVHLVESGGGLVQAGGSLRLSCAASGSIFSGNTMGWYRQAPGKERELVAAISGGGSTNYADSVKGRFTISRDNAKNTVYLQMNSLKPEDTAVYYCAKDWSLGASRMDYWGQGTQVTVSS”, with “low polyreactivity”; and “QVHLVESGGGLVQAGGSLRLSCAASGSIFSWYAMGWYRQAPGKEWELVAAITWSGGSTYYADSVKGRFTISRDTAKNTVYLQMNSLKPEDTAVYYCAASYDIYGNYRRYDYWGQGTQVTVSS”, with “high polyreactivity”.
In the case of “QVHLVESGGGLVQAGGSLRLSCAASGSIFVENAMGWYRQPPGKEREFVAAITRSGGSTYYADSVKGRFTISRDNAKNTVYLQMNSLKPEDTAVYYCAARIWDEQPAAGYYWGQGTQVTVSS”, the “polyreactivity (PSR sort gate)” value was “low polyreactivity”.
As to “QVHLVESGGGLVQAGGSLRLSCAASGSIFYINAMGWYRQPPGKDREFVARISWRSGSTSYADSVKGRFTISRDNAKNTVYLQMNSLKPEDTAVYYCNAGVFANDNGGRRDQFTWEYEYWGQGTQVTVSS”, the “polyreactivity (PSR sort gate)” value is given as “low polyreactivity”.
